Measured values taken from patent US20240026343A1, “METHOD FOR SCREENING DIMERIZED CYCLIC PEPTIDE” (AJINOMOTO CO., INC., priority 2021, published 2024).
Where a chain is given by its changes, count along the chain named. Positions of bridges follow the written chain, without caps; N, C: chain ends. No end group written: not given here.

T1: Recombinant Human Erythropoietin R Fc Chimera Protein, CF (R&D systems, 963-ER-50) (human, UniProt P19235 25-250)
T1 construct: Bought reagent; also called EPO receptor immobilized on magnetic beads; Fc part of the bought chimera not given
T1 sequence (looked up): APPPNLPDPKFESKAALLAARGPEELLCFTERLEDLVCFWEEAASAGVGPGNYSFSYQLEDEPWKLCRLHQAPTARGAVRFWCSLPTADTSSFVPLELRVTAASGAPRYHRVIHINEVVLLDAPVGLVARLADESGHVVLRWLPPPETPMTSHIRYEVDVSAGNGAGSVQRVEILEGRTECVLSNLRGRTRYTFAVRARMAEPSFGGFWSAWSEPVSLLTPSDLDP

B1: aMD4dY-PA8-cys-CEBPα: aMD4dY-CEBPα leucine zipper fusion, SEQ ID NO: 49 (protein)
chain: MAETCRQFNRRTHEVWNLDCGAAPAAPAPAAGCGGRNVETQQKVLELTSDNDRLRKRVEQLSRELDTLRGIFRQ
modifications: aMD4dY-PA8-cys-CEBP; DISULFID 5..20 Disulfide bridge between Cys-5 and Cys-20
B2: aMD4dY-Jun-cys-N11-SecM-GS3 (designed binder)
chain: MAETCRQFNRRTHEVWNLDCGAAPAAPAPAAGGRIARLEEKVKTLKAQNSELASTANMLREQVAQLKQKVMNGCGGKDHLIHNHHKHEHAHAEHLFSTPVWISQAQGIRAGGSGSGS
modifications: cyclic peptide part closed by a disulfide bond between its two Cys
notes: In the reporter assays it was a free cell-free translation product
B3: Jun-cys-PA8-aMD4dY: aMD4dY-leucine zipper fusion, SEQ ID NO: 51 (protein)
chain: MGRIARLEEKVKTLKAQNSELASTANMLREQVAQLKQKVMNGGCGGAAPAAPAPACRQFNRRTHEVWNLDC
modifications: Jun-cys-PA8-aMD4dY; DISULFID 56..71 Disulfide bridge between Cys-56 and Cys-71
B4: aMD4dY-PA8-Jun: aMD4dY-leucine zipper fusion without cysteine residue, SEQ ID NO: 46 (protein)
chain: MAETCRQFNRRTHEVWNLDCGAAPAAPAPAAGGGRIARLEEKVKTLKAQNSELASTANMLREQVAQLKQKVMN
modifications: aMD4dY-PA8-Jun; DISULFID 5..20 Disulfide bridge between Cys-5 and Cys-20
B5: EMP-PA8-cys-Jun: EMP-leucine zipper fusion, SEQ ID NO: 67 (protein)
chain: MGGLYACHMGPMTWVCQPLRGAAPAAPAPAAGCGGRIARLEEKVKTLKAQNSELASTANMLREQVAQLKQKVMN
modifications: EMP-PA8-cys-Jun; DISULFID 7..16 Disulfide bridge between Cys-7 and Cys-16
B6: EMP′-Jun-cys-N11-SecM-GS3: erythropoietin receptor binding cyclic peptide (EMP′)-leucine zipper fusion, SEQ ID NO: 73 (protein)
chain: MAETCHMGPMTWVCGAAPAAPAPAAGGRIARLEEKVKTLKAQNSELASTANMLREQVAQLKQKVMNGCGGKDHLIHNHHKHEHAHAEHLFSTPVWISQAQGIRAGGSGSGS
modifications: cyclic peptide disulfide; EMP'-Jun-cys-N11-SecM-GS3; DISULFID 5..14 Disulfide bridge between Cys-5 and Cys-14
B7: EMP-Jun-cys-N11-SecM-GS3 (designed binder)
chain: MAETGGLYACHMGPMTWVCQPLRGAAPAAPAPAAGGRIARLEEKVKTLKAQNSELASTANMLREQVAQLKQKVMNGCGGKDHLIHNHHKHEHAHAEHLFSTPVWISQAQGIRAGGSGSGS
modifications: cyclic peptide part closed by a disulfide bond between its two Cys
notes: In the PathHunter assay it was a free cell-free translation product
B8: TPO-Jun-cys-N11-SecM-GS3: thrombopoietin receptor binding cyclic peptide-leucine zipper fusion, SEQ ID NO: 72 (protein)
chain: MAETCADGPTLREWISFCGAAPAAPAPAAGGRIARLEEKVKTLKAQNSELASTANMLREQVAQLKQKVMNGCGGKDHLIHNHHKHEHAHAEHLFSTPVWISQAQGIRAGGSGSGS
modifications: cyclic peptide disulfide; TPO-Jun-cys-N11-SecM-GS3; DISULFID 5..18 Disulfide bridge between Cys-5 and Cys-18
B9: aMD4dY-PA8-cys-Jun: aMD4dY-leucine zipper fusion polypeptide, SEQ ID NO: 45, cell-free expressed, forms disulfide dimer (protein)
chain: MAETCRQFNRRTHEVWNLDCGAAPAAPAPAAGCGGRIARLEEKVKTLKAQNSELASTANMLREQVAQLKQKVMN
modifications: disulfide dimer; aMD4dY-PA8-cys-Jun; DISULFID 5..20 Disulfide bridge between Cys-5 and Cys-20
B10: aMD4dY-PA8-cys-JunΔhep: aMD4dY fusion with c-Jun zipper having heparin binding ability removed, SEQ ID NO: 47 (protein)
chain: B9 chain with R36Q, R39Q, K45Q, K48Q
modifications: aMD4dY-PA8-cys-Junhep; DISULFID 5..20 Disulfide bridge between Cys-5 and Cys-20
B11: cys-Jun-PA8-aMD4dY: aMD4dY-leucine zipper fusion, SEQ ID NO: 50 (protein)
chain: MGGCGGRIARLEEKVKTLKAQNSELASTANMLREQVAQLKQKVMNAAPAAPAPACRQFNRRTHEVWNLDC
modifications: disulfide 55-70

Legend:
Met = Met (Homo sapiens, UniProt P08581); conditions: reported; cited from earlier work
Chain of Met (P08581 25-1390): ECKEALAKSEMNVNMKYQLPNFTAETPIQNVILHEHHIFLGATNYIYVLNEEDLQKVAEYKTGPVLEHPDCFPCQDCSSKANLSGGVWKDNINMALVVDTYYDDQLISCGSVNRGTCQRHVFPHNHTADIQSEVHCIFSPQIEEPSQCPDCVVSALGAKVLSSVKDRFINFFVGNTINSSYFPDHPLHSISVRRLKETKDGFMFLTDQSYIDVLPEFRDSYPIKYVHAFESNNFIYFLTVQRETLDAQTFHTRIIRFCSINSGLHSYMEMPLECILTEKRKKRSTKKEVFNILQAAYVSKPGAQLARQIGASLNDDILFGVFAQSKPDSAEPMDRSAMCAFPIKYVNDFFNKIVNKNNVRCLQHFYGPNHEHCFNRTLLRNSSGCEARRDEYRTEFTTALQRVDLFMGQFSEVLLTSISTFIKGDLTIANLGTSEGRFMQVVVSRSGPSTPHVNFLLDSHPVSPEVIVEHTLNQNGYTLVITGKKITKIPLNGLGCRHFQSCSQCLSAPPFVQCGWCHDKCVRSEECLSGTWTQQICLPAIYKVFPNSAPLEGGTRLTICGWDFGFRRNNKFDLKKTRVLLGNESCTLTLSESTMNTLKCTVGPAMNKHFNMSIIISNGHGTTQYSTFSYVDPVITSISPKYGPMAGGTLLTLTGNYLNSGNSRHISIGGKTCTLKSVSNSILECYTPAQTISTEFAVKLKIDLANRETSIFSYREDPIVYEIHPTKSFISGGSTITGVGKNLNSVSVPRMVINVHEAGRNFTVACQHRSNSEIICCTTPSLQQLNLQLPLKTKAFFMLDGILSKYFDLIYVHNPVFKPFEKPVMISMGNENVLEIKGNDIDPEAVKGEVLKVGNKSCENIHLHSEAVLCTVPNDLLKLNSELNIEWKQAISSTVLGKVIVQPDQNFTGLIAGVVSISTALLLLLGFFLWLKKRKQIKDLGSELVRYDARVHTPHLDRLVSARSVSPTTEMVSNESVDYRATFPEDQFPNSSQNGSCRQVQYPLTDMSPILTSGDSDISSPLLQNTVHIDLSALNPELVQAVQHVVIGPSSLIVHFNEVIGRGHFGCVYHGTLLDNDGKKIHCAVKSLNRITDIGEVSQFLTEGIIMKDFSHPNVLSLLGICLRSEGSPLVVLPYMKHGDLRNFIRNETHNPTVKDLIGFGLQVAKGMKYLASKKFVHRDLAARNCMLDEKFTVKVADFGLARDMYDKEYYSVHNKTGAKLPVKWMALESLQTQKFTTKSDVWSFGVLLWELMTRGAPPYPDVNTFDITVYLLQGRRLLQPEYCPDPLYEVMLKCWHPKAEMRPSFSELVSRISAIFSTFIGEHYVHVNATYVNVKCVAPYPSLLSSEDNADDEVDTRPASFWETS

HGF-Erk-SRE pathway [1] = assay: SRE luciferase reporter assay of aMD4dY-leucine zipper fusion dimers (Example 2); assay type: cell-based; conditions: HEK293E cells with SRE reporter; cell-free expression reaction solution at 25- to 625-fold dilution; overnight stimulation; HGF 0 to 100 ng/mL as comparator; FIGS. 8-13
Experimental: (§1) The dimer of each aMD4dY-leucine zipper fusion was evaluated by luciferase assay. To 25 μL of Opti-MEM medium (Thermo Fisher Scientific), 0.6 μL of Attractene Transfection Reagent (QIAGEN) was added and incubated at room temperature for 5 minutes. To the above mixed solution, a mixed solution of 25 μL of Opti-MEM and 1 μL of SRE reporter vector (QIAGEN) was added and incubated at room temperature for 20 minutes. This mixed solution was added to a 96-well plate, HEK293E cells were seeded thereon at 40,000 cells/well, and incubated overnight at 37° C. in a 5% CO2 incubator. After transfection, all the culture supernatant was removed, and 100 μL of Opti-MEM medium (evaluation basal medium), containing 0.5% FBS (Thermo Fisher Scientific), 1% non-essential amino acid solution (Thermo Fisher Scientific), and penicillin-streptomycin (Nacalai Tesque), was added thereto, which was cultured at 37° C. for 4 hours to starve the cells.
(§2) To the evaluation basal medium, 0 to 100 ng/mL HGF was added, or the cell-free expression reaction solution was added at a 25- to 625-fold dilution with respect to the medium, and 100 μL of the evaluation basal medium was added to the cells. The cells were stimulated by culturing overnight at 37° C. in a 5% CO2 incubator.
(§3) Dual-Luciferase Reporter Assay System (Promega) was used for signal intensity detection. The medium supernatant in an amount of 100 μL was removed, 50 μL of Glo reagent was added, and cells were lysed at room temperature for 10 minutes. Activation of the HGF-Erk-SRE pathway was quantified by detecting Firefly luciferase luminescence from cell lysates with a plate reader. Subsequently, 50 μL of Glo & Stop reagent solution was added, and after 10 minutes, luminescence of Renilla luciferase, an internal standard, was detected to quantify the cell count. The signal activity of each sample was quantified as SRE activity=(luminescence intensity of Firefly luciferase)/(luminescence intensity of Renilla luciferase). A signal activity value relative to a sample without an addition of evaluation compound was obtained and defined as relative reporter activity.

[2] = target: T2, Recombinant Human HGFR/c-MET Fc Chimera Protein (R&D systems, 8614-MT-100) (human, UniProt P08581 25-932); assay: ribosome display selection on c-MET Fc chimera on magnetic beads, from a 1:50:50 DNA mix; DNA length analysis of the recovered cDNA
T2 construct: Bought reagent; also called c-Met immobilized on magnetic beads; Fc part of the bought chimera not given
T2 sequence (P08581 25-932, change not shown): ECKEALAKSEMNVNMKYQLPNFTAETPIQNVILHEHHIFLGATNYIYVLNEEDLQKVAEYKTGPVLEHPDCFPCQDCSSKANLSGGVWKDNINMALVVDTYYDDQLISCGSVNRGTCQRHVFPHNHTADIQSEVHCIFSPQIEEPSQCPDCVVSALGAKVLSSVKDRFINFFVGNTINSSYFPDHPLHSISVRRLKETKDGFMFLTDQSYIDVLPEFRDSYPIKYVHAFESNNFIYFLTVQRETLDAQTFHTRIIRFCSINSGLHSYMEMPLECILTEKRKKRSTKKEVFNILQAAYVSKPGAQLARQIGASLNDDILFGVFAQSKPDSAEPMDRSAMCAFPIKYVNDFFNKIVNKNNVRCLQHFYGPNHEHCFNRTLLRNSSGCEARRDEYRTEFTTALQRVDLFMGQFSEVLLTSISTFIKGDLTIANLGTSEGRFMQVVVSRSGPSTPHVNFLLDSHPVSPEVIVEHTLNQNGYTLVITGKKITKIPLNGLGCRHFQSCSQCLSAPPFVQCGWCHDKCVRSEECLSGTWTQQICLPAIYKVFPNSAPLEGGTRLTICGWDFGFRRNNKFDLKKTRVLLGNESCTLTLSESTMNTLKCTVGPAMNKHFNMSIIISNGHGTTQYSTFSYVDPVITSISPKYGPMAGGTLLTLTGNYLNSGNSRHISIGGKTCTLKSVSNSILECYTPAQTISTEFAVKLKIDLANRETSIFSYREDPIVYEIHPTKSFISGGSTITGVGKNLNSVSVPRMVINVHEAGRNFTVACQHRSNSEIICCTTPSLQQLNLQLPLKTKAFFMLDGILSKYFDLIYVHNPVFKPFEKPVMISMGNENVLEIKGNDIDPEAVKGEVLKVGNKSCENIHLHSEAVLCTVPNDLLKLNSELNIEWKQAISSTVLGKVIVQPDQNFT

EpoR = EpoR (Homo sapiens, UniProt P19235); assay: PathHunter eXpress EpoR-JAK2 Functional Assay of EMP-leucine zipper fusion dimer (Example 3); assay type: cell-based; conditions: diluted cell-free expression reaction solution; 3 hours stimulation; No DNA negative control; FIG. 14
Chain of EpoR (P19235 25-508): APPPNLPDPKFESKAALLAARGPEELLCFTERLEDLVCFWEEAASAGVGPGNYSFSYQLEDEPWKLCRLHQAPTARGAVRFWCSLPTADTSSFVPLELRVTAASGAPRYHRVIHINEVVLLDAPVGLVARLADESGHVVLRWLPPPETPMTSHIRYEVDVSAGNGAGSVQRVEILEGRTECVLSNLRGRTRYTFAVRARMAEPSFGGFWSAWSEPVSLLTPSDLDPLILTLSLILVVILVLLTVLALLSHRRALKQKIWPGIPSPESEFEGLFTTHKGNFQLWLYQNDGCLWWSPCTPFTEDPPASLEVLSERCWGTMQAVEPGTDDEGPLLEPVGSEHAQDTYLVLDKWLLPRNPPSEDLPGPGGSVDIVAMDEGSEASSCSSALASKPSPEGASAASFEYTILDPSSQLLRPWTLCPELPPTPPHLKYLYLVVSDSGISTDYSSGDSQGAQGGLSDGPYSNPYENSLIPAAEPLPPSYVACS
Chain of EpoR (O60674 whole entry partner, the tested form may be a part): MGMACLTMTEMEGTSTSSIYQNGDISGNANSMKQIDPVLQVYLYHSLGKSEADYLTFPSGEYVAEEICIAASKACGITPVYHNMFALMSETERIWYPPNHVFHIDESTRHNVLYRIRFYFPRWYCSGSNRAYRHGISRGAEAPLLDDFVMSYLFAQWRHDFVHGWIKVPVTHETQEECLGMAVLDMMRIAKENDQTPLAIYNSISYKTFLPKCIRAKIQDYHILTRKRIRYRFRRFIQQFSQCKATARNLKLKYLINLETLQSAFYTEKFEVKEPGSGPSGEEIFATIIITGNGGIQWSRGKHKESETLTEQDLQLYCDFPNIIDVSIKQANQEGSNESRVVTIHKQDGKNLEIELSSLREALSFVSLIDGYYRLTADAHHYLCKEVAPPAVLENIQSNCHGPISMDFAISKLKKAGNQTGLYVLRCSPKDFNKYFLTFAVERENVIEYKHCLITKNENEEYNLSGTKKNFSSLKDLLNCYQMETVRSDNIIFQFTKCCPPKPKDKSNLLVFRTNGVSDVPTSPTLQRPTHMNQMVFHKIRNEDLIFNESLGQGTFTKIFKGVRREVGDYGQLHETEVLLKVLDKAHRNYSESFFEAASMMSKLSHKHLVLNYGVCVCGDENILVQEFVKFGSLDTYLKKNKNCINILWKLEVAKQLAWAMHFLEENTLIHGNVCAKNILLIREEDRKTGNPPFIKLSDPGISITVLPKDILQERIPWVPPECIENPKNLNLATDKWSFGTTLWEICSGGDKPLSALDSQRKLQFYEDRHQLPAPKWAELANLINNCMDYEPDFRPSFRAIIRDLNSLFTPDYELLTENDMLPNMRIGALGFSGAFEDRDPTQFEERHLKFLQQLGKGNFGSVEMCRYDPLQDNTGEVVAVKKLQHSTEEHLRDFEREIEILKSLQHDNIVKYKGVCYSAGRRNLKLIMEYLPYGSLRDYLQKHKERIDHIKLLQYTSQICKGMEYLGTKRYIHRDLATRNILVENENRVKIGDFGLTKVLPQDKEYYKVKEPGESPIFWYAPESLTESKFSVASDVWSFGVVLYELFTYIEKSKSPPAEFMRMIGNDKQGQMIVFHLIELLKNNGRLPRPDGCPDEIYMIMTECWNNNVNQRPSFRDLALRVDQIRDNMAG
Experimental: The ability of the EMP-leucine zipper fusion dimer to activate EpoR was assessed using PathHunter® eXpress EpoR-JAK2 Functional Assay Kit (DiscoveRx).
Cells for EPO activity evaluation contained in the PathHunter® eXpress EpoR-JAK2 Functional Assay Kit were seeded in a 96-well plate and cultured for 24 hours at 37° C. under 5% CO2. A cell-free expression reaction solution containing the EMP-leucine zipper fusion were diluted and added to the cells. […] To the cells stimulated at room temperature for 3 hours, the prepared Substrate Reagent was added and incubated for 60 minutes. Chemiluminescence intensity was quantified with a Nivo plate reader (Perkin Elmer).

HGF-Erk-SRE pathway [3] = assay: SRE luciferase reporter assay of cell-free translation products from ribosome display DNAs (Example 4); assay type: cell-based; conditions: HEK293E cells with SRE reporter; cell-free translation product at 25- to 625-fold dilution; HGF comparator; FIG. 16
Experimental: For cell-free translation, to 20 ng of each DNA, 2.5 μL of Solution I, 0.25 μL of Solution II, 0.5 μL of Solution III, and 1.75 μL of water were added, and the mixture was incubated at 37° C. for 6 hours to carry out the translation reaction.
as §1, with “Reporter assays were carried out as follows.” for “The dimer of each aMD4dY-leucine zipper fusion was evaluated by luciferase assay.”
as §2, with “or the above cell-free expression” for “or the cell-free expression”
as §3, with “The medium supernatant in an amount of 100 μL was removed, 50 μL of Glo reagent was added, and cells were lysed at room temperature for 10 minutes.” left out, “A signal activity value relative to a sample without an addition of evaluation compound was obtained and defined as relative reporter activity.” left out

[4] = target: T1, Recombinant Human Erythropoietin R Fc …; assay: ribosome display selection on Erythropoietin R Fc chimera on magnetic beads, from a 1:50:50 DNA mix; DNA length analysis of the recovered cDNA
Experimental: Immobilization of target molecules to magnetic beads was carried out. […] The magnetic beads were washed three times with 100 μL of 1× TBS-T buffer, then resuspended in 10 μL of 1× TBS-T buffer and allowed to stand on ice.

Molecule | relative reporter activity (SRE activity) (HGF-Erk-SRE pathway [1]) | other results
CRQFNRRTHEVWNLDC (disulfide 1-16) [aMD4dY] |  | HGF-like activity (Met agonist) when dimerized (Met): exhibits an HGF-like activity
B1 | found to have signal activation ability | 
B2 |  | binding result [2]: binds
B3 | found to have signal activation ability | 
B4 | did not show activity | 
B5 |  | ability to activate EpoR (relative receptor activity, chemiluminescence) (EpoR): activated EpoR
B6 |  | relative SRE reporter activity (relative receptor activity) (HGF-Erk-SRE pathway [3]): only aMD4dY-Jun-cys-N11-SecM-GS3 showed activity
B7 |  | binding result [4]: binds
B8 |  | relative SRE reporter activity (relative receptor activity) (HGF-Erk-SRE pathway [3]): only aMD4dY-Jun-cys-N11-SecM-GS3 showed activity
B9 | showed activity comparable to HGF | 
B10 | activity was also exhibited | 
B11 | found to have signal activation ability | 
